Consider two proteins from publication PMC6765138 (Nucleic Acids Research, 2019).

The data set “crystal structure” deals with the molecule itself. The data set can be described thus: crystal structure.
The data set “SEC” concerns the molecule itself. Kind of data set: SEC.

B1: Se-Met-MtPrpR_(81–486) (selenomethionine-derived MtPrpR_(81–486)) (domain or fragment)
chain: DARLVADLSDVFTDIGVEHAVSGAQIEEFVARMPEVGHSLVAVHRRLRAATEELEGYRSRATAETELPPARPMPFEEVRDFFYDRNNYIHDLDMAAERMFTESGMRTGGLDIQLAELMRDRFGISVVIDDNLPDTAKRRYHPDTKVLRVAHWLMPGQRAFQIATQLALVGQSDLISSIVATDDQLSTEARGVARIGLANYFAGAFLLPYREFHRAAEQLRYDIDLLGRRFGVGFETVCHRLSTLQRPRQRGIPFIFVRTDKAGNISKRQSATAFHFSRVGGSCPLWVVHDAFAQPERIVRQVAQMPDGRSYFWVAKTTAADGLGYLGPHKNFAVGLGCDLAHAHKLVYSTGVVLDDPSTEVPIGAGCKICNRTSCAQRAFPYLGGRVAVDENAGSSLPYSSTEQSV
modifications: selenomethionine incorporated in place of methionine
notes: also called Se-PrpR_(81–486); not shown: His6, N-terminal, kept
As for B1, in the data set “crystal structure”, the “stoichiometry N” value came out at 4.

B2: MtPrpR_(81–486)_F155H variant (domain or fragment)
chain: DARLVADLSDVFTDIGVEHAVSGAQIEEFVARMPEVGHSLVAVHRRLRAATEELEGYRSRATAETELPPARPMPHEEVRDFFYDRNNYIHDLDMAAERMFTESGMRTGGLDIQLAELMRDRFGISVVIDDNLPDTAKRRYHPDTKVLRVAHWLMPGQRAFQIATQLALVGQSDLISSIVATDDQLSTEARGVARIGLANYFAGAFLLPYREFHRAAEQLRYDIDLLGRRFGVGFETVCHRLSTLQRPRQRGIPFIFVRTDKAGNISKRQSATAFHFSRVGGSCPLWVVHDAFAQPERIVRQVAQMPDGRSYFWVAKTTAADGLGYLGPHKNFAVGLGCDLAHAHKLVYSTGVVLDDPSTEVPIGAGCKICNRTSCAQRAFPYLGGRVAVDENAGSSLPYSSTEQSV
notes: also called MtPrpR_(81–486)_F155H mutant; MtRamB-like mutant of MtPrpR; not shown: His6, N-terminal, kept
For the protein B2, in the data set “SEC”, the “stoichiometry N” value amounted to 4.
